Data: publication PMC9744743, “Introducing or removing heparan sulfate binding sites does not alter brain uptake of the blood–brain barrier shuttle scFv8D3” (Scientific Reports, 2022)

Target: T1, recombinant mouse TfR extracellular domain protein (Mus musculus, UniProt Q62351)
T1 construct: transferrin receptor (TfR), mouse, extracellular domain; also called transferrin receptor; source: recombinant, prepared in our lab
Assay: ELISA; indirect ELISA; half-area plates coated with 50 ng/well recombinant mouse TfR extracellular domain in PBS overnight at 4 °C, blocked with 1% BSA; serial dilutions of scFvs 2 h at RT in PBS with 0.1% BSA and 0.05% Tween-20; detected by mouse anti-Strep-Tag II and HRP goat anti-mouse
Settings: both partners purified

T1 sequence (Q62351 89-763): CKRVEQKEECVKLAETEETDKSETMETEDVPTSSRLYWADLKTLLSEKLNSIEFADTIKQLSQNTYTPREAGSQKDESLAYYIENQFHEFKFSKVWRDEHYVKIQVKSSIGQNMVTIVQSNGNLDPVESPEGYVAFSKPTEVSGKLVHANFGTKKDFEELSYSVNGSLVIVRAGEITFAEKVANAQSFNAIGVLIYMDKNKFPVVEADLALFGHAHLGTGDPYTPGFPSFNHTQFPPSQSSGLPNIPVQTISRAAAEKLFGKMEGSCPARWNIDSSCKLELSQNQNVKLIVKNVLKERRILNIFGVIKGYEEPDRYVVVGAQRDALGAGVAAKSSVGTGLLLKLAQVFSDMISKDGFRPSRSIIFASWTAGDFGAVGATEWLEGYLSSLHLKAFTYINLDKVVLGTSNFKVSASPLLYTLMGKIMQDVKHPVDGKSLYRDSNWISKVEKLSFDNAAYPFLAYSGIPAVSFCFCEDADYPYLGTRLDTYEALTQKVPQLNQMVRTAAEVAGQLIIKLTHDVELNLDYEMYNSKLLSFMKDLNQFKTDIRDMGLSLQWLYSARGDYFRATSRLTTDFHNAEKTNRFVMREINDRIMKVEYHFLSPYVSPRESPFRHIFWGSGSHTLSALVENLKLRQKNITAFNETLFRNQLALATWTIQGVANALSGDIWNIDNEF

B1: HS(−)scFv8D3 mutant (K42Q_K43Q and K243Q_R244Q) (scFv, V domains shown)
VH: EVQLVESGGGLVQPGNSLTLSCVASGFTFSNYGMHWIRQAPQQGLEWIAMIYYDSSKMNYADTVKGRFTISRDNSKNTLYLEMNSLRSEDTAMYYCAVPTSHYVVDVWGQGVSVTVSS
VL: DIQMTQSPASLSASLEEIVTITCQASQDIGNWLAWYQQKPGKSPQLLIYGATSLADGVPSRFSGSRSGTQFSLKISRVQVEDIGIYYCLQAYNTPWTFGGGTKLELQ
notes: as the heavy chain variable domain of m1 with the stated changes; numbers count on: the whole scFv8D3 chain; linker, printed as SGSTS (G4S)3; as the light chain variable domain of m1 with the stated changes; Same tag, linkers and signal peptide as m1; also called HS minus mutant; source: Expi293 cells, transfected, purified from supernatant (Strep-Tactin XT)
  binding result: binds

B2: HS(+)scFv8D3 mutant (S75K and P176K) (scFv, V domains shown)
VH: EVQLVESGGGLVQPGNSLTLSCVASGFTFSNYGMHWIRQAPKKGLEWIAMIYYDSSKMNYADTVKGRFTISRDNKKNTLYLEMNSLRSEDTAMYYCAVPTSHYVVDVWGQGVSVTVSS
VL: DIQMTQSPASLSASLEEIVTITCQASQDIGNWLAWYQQKKGKSPQLLIYGATSLADGVPSRFSGSRSGTQFSLKISRVQVEDIGIYYCLQAYNTPWTFGGGTKLELK
notes: as the heavy chain variable domain of m1 with the stated change; numbers count on: the whole scFv8D3 chain; linker, printed as SGSTS (G4S)3; as the light chain variable domain of m1 with the stated change; Same tag, linkers and signal peptide as m1; That S75 lies in the first domain and P176 in the second is worked out from the residue numbers; also called HS plus mutant; source: Expi293 cells, …
  binding result: binds
